Key:
[1] = molecular target: mUb-K240 VASP (VASP^CCC-SSA K240C crosslinked by bismaleimidoethane to ubiquitin^(1-74, G75C)) (UniProt P0CG48); assay: mass photometry; 15 nM VASP, room temperature, Refeyn One; margin of error of each mass about 20-25%
[2] = molecular target: mUb-K286 VASP (VASP^CCC-SSA K286C crosslinked by bismaleimidoethane to ubiquitin^(1-74, G75C)) (UniProt P0CG48); assay: as above
[3] = molecular target: chicken skeletal muscle actin (filaments, 10% Alexa Fluor 488 labeled) (chicken) (UniProt P68139); assay: single-molecule TIRF microscopy (dwell time); 1 nM TAMRA–VASP at the trailing barbed end of two-filament bundles; 1.5 µM actin (10% Alexa Fluor 488 labeled), 673 nM fascin, TIRF buffer, room temperature; 0.5 s/frame; one-phase decay fit of 1−cumulative frequency
[4] = molecular target: mmUb-K240/K286 VASP (VASP^CCC-SSA K240C, K286C crosslinked by bismaleimidoethane to two ubiquitin^(1-74, G75C)) (UniProt P0CG48); assay: mass photometry; 15 nM VASP, room temperature, Refeyn One; margin of error of each mass about 20-25%
[5] = molecular target: unmodified VASP (TAMRA–VASP; cysteine-light VASP^CCC-SSA with an N-terminal GGG motif) (human); assay: as above

Which stoichiometry N [1] does the source give for “mUb-K240 VASP (VASP^CCC-SSA K240C crosslinked by bismaleimidoethane to ubiquitin^(1-74, G75C)) (from UniProt P0CG48 1-75) (complex)” here?
Its stoichiometry N is 4.

For “mUb-K286 VASP (VASP^CCC-SSA K286C crosslinked by bismaleimidoethane to ubiquitin^(1-74, G75C)) (from UniProt P0CG48 1-75) (complex)”, which stoichiometry N [2] is on record?
The stoichiometry N was 4.

Which lifetime τ1 at the barbed end [3] does the source give for “mmUb-K240/K286 VASP (VASP^CCC-SSA K240C, K286C crosslinked by bismaleimidoethane to two ubiquitin^(1-74, G75C)) (from UniProt P0CG48 1-75) (complex)” here?
The lifetime τ1 at the barbed end was 1.14 s.

And the stoichiometry N [4]?
The stoichiometry N was 4.

What does the source list for “unmodified VASP (TAMRA–VASP; cysteine-light VASP^CCC-SSA with an N-terminal GGG motif) (natural protein)”?
lifetime τ1 at the barbed end [3]: 1.17 s; stoichiometry N [5]: 4

From paper PMC10917064
